Results: the Immune Epitope Database (IEDB)

Columns and labels:
Conditions in all cases: source organism: Hepatitis B virus
HLA-B*51:01 [1] = assay: IEDB peptide-MHC binding, purified MHC/competitive/radioactivity; filed as Kd, often an IC50 or EC50 that approximates it; ≥ and ≤ were set here for values at or beyond the usual limits of such assays
HLA-A*02:06 = assay: as above
HLA-A*03:01 [2] = assay: as above
HLA-A*68:01 [3] = assay: as above
HLA-A*03:01 [4] = assay: IEDB peptide-MHC binding, purified MHC/competitive/radioactivity; ≥ and ≤ were set here for values at or beyond the usual limits of such assays
HLA-A*31:01 = assay: IEDB peptide-MHC binding, purified MHC/competitive/radioactivity; filed as Kd, often an IC50 or EC50 that approximates it; ≥ and ≤ were set here for values at or beyond the usual limits of such assays
HLA-A*33:01 = assay: as above
HLA-B*35:01 = assay: IEDB peptide-MHC binding, purified MHC/competitive/radioactivity; ≥ and ≤ were set here for values at or beyond the usual limits of such assays
HLA-B*51:01 [5] = assay: as above
HLA-A*68:01 [6] = assay: as above
HLA-A*02:03 = assay: IEDB peptide-MHC binding, purified MHC/competitive/radioactivity; filed as Kd, often an IC50 or EC50 that approximates it; ≥ and ≤ were set here for values at or beyond the usual limits of such assays
HLA-B*53:01 = assay: IEDB peptide-MHC binding, purified MHC/competitive/radioactivity; ≥ and ≤ were set here for values at or beyond the usual limits of such assays

DPSRGRLGL
Kd (HLA-B*51:01 [1]): ≥ 25 µM

GLLGWSPQA
Kd (HLA-A*02:06): 1.32 µM

GTDNSVVLSR
Kd (HLA-A*03:01 [2]): ≥ 10 µM
Kd (HLA-A*68:01 [3]): ≥ 20 µM

GTDNSVVLSRK
IC50 (HLA-A*03:01 [4]): 0.786 µM
Kd (HLA-A*31:01): ≥ 25 µM
Kd (HLA-A*33:01): ≥ 25 µM
Kd (HLA-A*68:01 [3]): ≥ 25 µM

HTLWKAGILY
Kd (HLA-A*31:01): ≥ 25 µM

IPIPSSWAF
IC50 (HLA-B*35:01): 0.0026 µM
IC50 (HLA-B*51:01 [5]): 0.22 µM

KVGNFTGLY
Kd (HLA-A*31:01): ≥ 25 µM
Kd (HLA-A*33:01): ≥ 25 µM
Kd (HLA-A*68:01 [3]): ≥ 25 µM

MMWYWGPSLY
Kd (HLA-A*31:01): ≥ 25 µM
Kd (HLA-A*33:01): ≥ 25 µM
Kd (HLA-A*68:01 [3]): ≥ 25 µM

PVNRPIDWK
Kd (HLA-A*31:01): ≥ 25 µM
Kd (HLA-A*33:01): ≥ 25 µM

RVTGGVFLVDK
IC50 (HLA-A*03:01 [4]): 0.579 µM
Kd (HLA-A*31:01): ≥ 25 µM
Kd (HLA-A*33:01): ≥ 25 µM
Kd (HLA-A*68:01 [3]): ≥ 25 µM

TLWKAGILY
Kd (HLA-A*33:01): ≥ 25 µM
Kd (HLA-A*68:01 [3]): ≥ 25 µM

TPARVTGGVF
Kd (HLA-B*51:01 [1]): ≥ 25 µM

VTGGVFLVDK
Kd (HLA-A*31:01): ≥ 25 µM

VVDFSQFSR
IC50 (HLA-A*68:01 [6]): 0.32 µM

YMDDVVLGA
Kd (HLA-A*02:03): 4.17 µM
Kd (HLA-A*02:06): ≥ 25 µM

YMDDVVLGAK
Kd (HLA-A*31:01): ≥ 25 µM
Kd (HLA-A*33:01): ≥ 25 µM
Kd (HLA-A*68:01 [3]): ≥ 25 µM

YPALMPLYA
IC50 (HLA-B*35:01): 0.15 µM
IC50 (HLA-B*51:01 [5]): 0.162 µM
IC50 (HLA-B*53:01): 0.664 µM
